Reference: patent US20050008648A1 (BOARD OF TRUSTEES OF THE UNIVERSITY OF ILLINOIS, published 2005)

Target: the molecule itself
Test: X-ray crystal structure
Text: Crystals were transferred to a cryoprotectant solution that in the case of the citrate condition was made of mineral oil (Sigma) while for the crystals grown in PEG it was composed of the mother liquor and 10% (w/v) xylitol-10% (w/v) sucrose. Once the crystals were mounted in loops, they were frozen by directly immersing them in liquid nitrogen. X-ray data were collected at the Advanced Photon Source using the BioCARS beamlines BM-C and BM-D, and the SERCAT beamline ID-22.
Data for the MAD data set were collected to 2.3 Å resolution. A partially built model into the MAD electron density was used to solve the tetragonal crystals. […] The ligands were refined without conformational torsion-angle restraints in order to prevent bias towards a particular ring conformation for the sugars.

B1: Human deoxycytidine kinase (dCK) (enzyme)
chain: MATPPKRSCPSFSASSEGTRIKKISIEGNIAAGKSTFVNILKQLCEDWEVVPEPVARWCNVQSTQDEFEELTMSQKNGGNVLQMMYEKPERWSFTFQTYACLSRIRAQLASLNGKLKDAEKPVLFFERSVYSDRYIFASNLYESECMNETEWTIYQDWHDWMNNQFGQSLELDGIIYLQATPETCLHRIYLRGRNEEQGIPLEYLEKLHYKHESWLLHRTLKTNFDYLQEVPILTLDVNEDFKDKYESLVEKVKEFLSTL
notes: Made in E. coli with a His-tag that was cleaved by thrombin; The selenomethionine-substituted protein was used for MAD phasing; Residues 1 to 19 were not seen in the electron density; Crystallized with dC, ara-C or gemcitabine and ADP; also called human dCK; wild type dCK
  binding result: binds
